Target: αB-crystallin triply substituted analog (serine residues 19, 45 and 59 mutated to aspartic acids) (UniProt P02511)
Test: back-scattering interferometry

Row | Substance | KD1 (high affinity mode) | KD2 (low affinity mode) | kf1 (forward rate, high affinity mode) | kf2 (forward rate, low affinity mode) | kr1 (reverse rate, high affinity mode) | reduction in magnitude of the steady-state BSI signal relative to T4L-L99A-A130S | reverse rate, low affinity mode (row printed as kr1)
1 | T4 lysozyme D70N (from UniProt P00720 1-164) (enzyme) | 0.595 µM | 29.1 µM | 25500 M⁻¹ s⁻¹ | 2340 M⁻¹ s⁻¹ | 0.0152 s⁻¹ | 40% | 
2 | T4 lysozyme L99A-A130S double mutant (from UniProt P00720 1-164) (enzyme) | 0.132 µM | 33 µM | 58500 M⁻¹ s⁻¹ | 2970 M⁻¹ s⁻¹ | 5.03e-06 s⁻¹ |  | 0.115 s⁻¹

Source: paper PMC2787765
